# Experimental data published in patent US20230416378A1 (Boehringer Ingelheim, published 2023).
# Key:
# [1] = biological target: T1, Neuropilin-1 (Nrp1) endogenously expressed on human endothelial cells (HRMEC, HUVEC) (human, UniProt O14786 22-923); test: cell-based or functional assay
# [2] = biological target: T1, Neuropilin-1 (Nrp1) endogenously …; test: cell-based or functional assay; remark: listed apart in the source
# [3] = biological target: T2, human Nrp1 (soluble analyte in SPR and BLI) (human, UniProt O14786 22-856, limits assumed); test: SPR, antibody captured on Protein A/G (GLM sensorchip), human Nrp1A as analyte 0-100 nM, 1:1 Langmuir fit
# T2 construct: also called hNrp1; Human Nrp1A
# T2 sequence (O14786 22-856 V179A limits assumed): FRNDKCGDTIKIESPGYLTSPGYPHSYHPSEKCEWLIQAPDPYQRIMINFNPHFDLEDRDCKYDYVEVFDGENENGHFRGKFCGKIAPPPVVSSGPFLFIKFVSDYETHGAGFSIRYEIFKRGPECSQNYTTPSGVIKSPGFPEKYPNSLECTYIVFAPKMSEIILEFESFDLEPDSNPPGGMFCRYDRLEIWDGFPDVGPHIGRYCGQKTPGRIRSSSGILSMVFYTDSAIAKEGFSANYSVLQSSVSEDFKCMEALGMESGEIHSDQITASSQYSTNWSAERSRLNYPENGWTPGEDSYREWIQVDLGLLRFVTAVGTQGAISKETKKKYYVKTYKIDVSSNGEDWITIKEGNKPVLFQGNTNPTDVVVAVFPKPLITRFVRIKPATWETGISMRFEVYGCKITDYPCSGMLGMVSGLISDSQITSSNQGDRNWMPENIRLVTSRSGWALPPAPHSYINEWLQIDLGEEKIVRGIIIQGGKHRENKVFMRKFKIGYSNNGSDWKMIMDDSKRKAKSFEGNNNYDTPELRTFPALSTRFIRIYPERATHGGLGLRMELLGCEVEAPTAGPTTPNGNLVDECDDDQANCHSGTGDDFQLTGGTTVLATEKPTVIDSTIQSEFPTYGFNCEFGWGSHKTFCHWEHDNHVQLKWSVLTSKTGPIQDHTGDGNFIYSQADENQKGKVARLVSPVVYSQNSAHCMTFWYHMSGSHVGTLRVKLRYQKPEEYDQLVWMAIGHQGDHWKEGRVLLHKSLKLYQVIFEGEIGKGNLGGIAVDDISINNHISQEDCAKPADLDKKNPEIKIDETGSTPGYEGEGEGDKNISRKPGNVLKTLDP
# Method: (§1) The running buffer for this experiment and all dilutions (except where stated) were done in PBS-T-EDTA with 0.01% Tween20 [100 ul of 100% Tween20 was added to 2L of PBS-T-EDTA to make final Tween 20 concentration of 0.01%]. The GLM sensorchip was normalized and pre-conditioned as per the manufacturer's recommendations. The sensorchip was activated with equal mixture of EDC/s-NHS in the horizontal direction for 300 sec at a flow rate of 30 μl/min and immobilized with Recombinant Protein NG (60 μg/ml in 10 mM acetate pH 4.5) in the horizontal direction for 300 sec at a flowrate of 30 μl/min. The sensorchip was deactivated with 1M ethanolamine HCl in the horizontal direction for 300 sec at a flowrate of 30 μl/min. The sensorchip was stabilized with 18 sec of 0.85% phosphoric acid at a flowrate of 100 μl/min 3 times horizontally and 3 times vertically.
# Human Nrp1A was prepared in PBS-T-EDTA buffer at concentrations of 100, 50, 25, 12.5, 6.25, and 0 nM. A PBS-T-EDTA buffer injection was used as a double reference for the kinetic data analysis. Each of the human Nrp1A solutions and PBS-T-EDTA buffer were injected simultaneously over the 6 horizontal channels for 5 min at a flow rate of 40 μL/min followed by 30 min dissociation phase. The surfaces were regenerated by an 18 sec injection of 0.85% Phosphoric acid at a flow rate of 100 μL/min followed by an injection of sec PBS-T-EDTA at a flow rate of 100 μL/min. The interspot (interactions with sensor surface) and blank (PBS-T-EDTA with 0.01% Tween20 or 0 nM analyte) were subtracted from the raw data.
# [4] = biological target: T2, human Nrp1 (soluble analyte in SPR and …); test: SPR, antibody captured on Protein A/G (GLM sensorchip), Nrp1 as analyte 0-100 nM, 1:1 Langmuir fit
# Method: as §1, with “The sensorchip was activated with equal mixture of EDC/s-NHS in the horizontal direction for 300 sec at a flow rate of 30 μl/min and immobilized with Recombinant Protein NG (60 μg/ml in 10 mM acetate pH 4.5) in the horizontal direction for 300 sec at a flowrate of 30 μl/min.” left out
# (§2) The baseline was stabilized by injecting PBS-T-EDTA for 60 sec at a flowrate of 100 μl/min horizontally with dissociation of 120 sec. The analyte was injected horizontally over the captured antibody for 300 sec at a flowrate of 30 μl/min and a dissociation for 1800 sec. The concentrations of the analytes were 0 nM, 6.25 nM, 12.5 nM, 25 nM, 50 nM, and 100 nM. The surface was regenerated by injecting 0.85% phosphoric acid for 18 sec at a flowrate of 100 μl/min one time horizontally and one time vertically. PBS-T-EDTA was injected for 60 sec at a flowrate of 100 μl/min one time vertically and one time horizontally.
# (§3) The interspot (interactions with sensor surface) and blank (PBS-T-EDTA with 0.01% Tween20 or 0 nM analyte) were subtracted from the raw data.
# cyno Nrp1 = biological target: T3, cyno Nrp1 (cyno, UniProt A0A2K5V5E7 24-858); test: as above
# T3 construct: also called cyno-Nrp1A
# T3 sequence (A0A2K5V5E7 entry or part of it): as the sequence (O14786 22-856 V179A limits assumed) above, with H77R, F78L, R79W, P96Q, L258V, V341I, M396L, I460V, L578P counted along it
# Method: as §1, with “The sensorchip was activated with equal mixture of EDC/s-NHS in the horizontal direction for 300 sec at a flow rate of 30 μl/min and immobilized with Recombinant Protein NG (60 μg/ml in 10 mM acetate pH 4.5) in the horizontal direction for 300 sec at a flowrate of 30 μl/min.” left out
# as §2, §3
# rat Nrp1 = biological target: T4, rat Nrp1 (rat, UniProt Q9QWJ9 22-855, limits assumed); test: as above
# T4 construct: also called rat Nrp1A
# T4 sequence (Q9QWJ9 22-855 limits assumed): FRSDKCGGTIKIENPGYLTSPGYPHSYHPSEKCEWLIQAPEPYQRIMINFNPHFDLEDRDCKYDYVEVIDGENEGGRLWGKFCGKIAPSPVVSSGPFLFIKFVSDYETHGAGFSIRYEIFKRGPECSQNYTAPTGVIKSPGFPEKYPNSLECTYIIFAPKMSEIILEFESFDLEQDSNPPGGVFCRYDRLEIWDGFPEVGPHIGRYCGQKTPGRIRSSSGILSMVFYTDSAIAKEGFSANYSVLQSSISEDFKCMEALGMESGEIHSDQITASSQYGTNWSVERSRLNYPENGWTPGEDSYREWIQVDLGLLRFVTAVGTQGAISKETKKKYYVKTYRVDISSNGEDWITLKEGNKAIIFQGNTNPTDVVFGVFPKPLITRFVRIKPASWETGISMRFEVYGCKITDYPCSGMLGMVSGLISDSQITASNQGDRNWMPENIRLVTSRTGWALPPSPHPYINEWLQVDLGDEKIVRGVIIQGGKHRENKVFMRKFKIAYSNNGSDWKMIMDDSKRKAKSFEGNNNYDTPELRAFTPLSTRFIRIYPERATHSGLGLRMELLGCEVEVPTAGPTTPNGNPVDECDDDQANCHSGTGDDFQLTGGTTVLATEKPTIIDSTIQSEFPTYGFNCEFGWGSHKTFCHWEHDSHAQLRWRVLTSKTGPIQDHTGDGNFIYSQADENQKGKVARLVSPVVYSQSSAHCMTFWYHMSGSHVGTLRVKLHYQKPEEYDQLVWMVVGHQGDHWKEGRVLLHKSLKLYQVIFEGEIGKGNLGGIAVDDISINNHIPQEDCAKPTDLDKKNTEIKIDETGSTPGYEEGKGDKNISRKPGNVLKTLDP
# Method: as §1, with “The sensorchip was activated with equal mixture of EDC/s-NHS in the horizontal direction for 300 sec at a flow rate of 30 μl/min and immobilized with Recombinant Protein NG (60 μg/ml in 10 mM acetate pH 4.5) in the horizontal direction for 300 sec at a flowrate of 30 μl/min.” left out
# as §2, §3
# mouse Nrp1 = biological target: T5, mouse Nrp1 (mouse, UniProt P97333 22-856, limits assumed); test: as above
# T5 construct: also called mouse Nrp1A
# T5 sequence (P97333 22-856 limits assumed): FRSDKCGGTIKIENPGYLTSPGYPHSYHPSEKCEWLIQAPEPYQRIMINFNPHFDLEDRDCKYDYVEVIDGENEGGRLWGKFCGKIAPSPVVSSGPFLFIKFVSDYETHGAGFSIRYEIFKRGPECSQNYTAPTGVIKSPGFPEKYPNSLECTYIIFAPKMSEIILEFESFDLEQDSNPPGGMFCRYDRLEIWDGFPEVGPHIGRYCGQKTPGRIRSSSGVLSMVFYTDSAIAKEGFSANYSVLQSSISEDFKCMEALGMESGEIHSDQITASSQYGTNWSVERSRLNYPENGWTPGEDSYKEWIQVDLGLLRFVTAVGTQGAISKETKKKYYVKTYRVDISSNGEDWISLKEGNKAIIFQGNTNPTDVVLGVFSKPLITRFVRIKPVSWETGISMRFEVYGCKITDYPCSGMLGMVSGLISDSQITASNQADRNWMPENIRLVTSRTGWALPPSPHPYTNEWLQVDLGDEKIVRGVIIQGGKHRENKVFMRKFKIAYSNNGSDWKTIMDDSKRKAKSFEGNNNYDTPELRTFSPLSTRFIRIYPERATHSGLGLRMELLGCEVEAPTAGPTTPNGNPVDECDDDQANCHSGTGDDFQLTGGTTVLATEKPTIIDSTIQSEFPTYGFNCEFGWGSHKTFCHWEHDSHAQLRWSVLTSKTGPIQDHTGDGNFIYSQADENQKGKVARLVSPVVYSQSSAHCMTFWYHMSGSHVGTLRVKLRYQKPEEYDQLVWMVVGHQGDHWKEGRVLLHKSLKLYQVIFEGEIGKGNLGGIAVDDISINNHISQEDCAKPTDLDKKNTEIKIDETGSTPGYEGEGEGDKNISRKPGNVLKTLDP
# Method: as §1, with “The sensorchip was activated with equal mixture of EDC/s-NHS in the horizontal direction for 300 sec at a flow rate of 30 μl/min and immobilized with Recombinant Protein NG (60 μg/ml in 10 mM acetate pH 4.5) in the horizontal direction for 300 sec at a flowrate of 30 μl/min.” left out
# as §2, §3
# gerbil Nrp1 = biological target: T6, gerbil Nrp1 (gerbil); test: as above
# T6 construct: also called gerbil Nrp1A
# Method: as §1, with “The sensorchip was activated with equal mixture of EDC/s-NHS in the horizontal direction for 300 sec at a flow rate of 30 μl/min and immobilized with Recombinant Protein NG (60 μg/ml in 10 mM acetate pH 4.5) in the horizontal direction for 300 sec at a flowrate of 30 μl/min.” left out
# as §2, §3
# T1 sequence (O14786 22-923 V179A limits assumed): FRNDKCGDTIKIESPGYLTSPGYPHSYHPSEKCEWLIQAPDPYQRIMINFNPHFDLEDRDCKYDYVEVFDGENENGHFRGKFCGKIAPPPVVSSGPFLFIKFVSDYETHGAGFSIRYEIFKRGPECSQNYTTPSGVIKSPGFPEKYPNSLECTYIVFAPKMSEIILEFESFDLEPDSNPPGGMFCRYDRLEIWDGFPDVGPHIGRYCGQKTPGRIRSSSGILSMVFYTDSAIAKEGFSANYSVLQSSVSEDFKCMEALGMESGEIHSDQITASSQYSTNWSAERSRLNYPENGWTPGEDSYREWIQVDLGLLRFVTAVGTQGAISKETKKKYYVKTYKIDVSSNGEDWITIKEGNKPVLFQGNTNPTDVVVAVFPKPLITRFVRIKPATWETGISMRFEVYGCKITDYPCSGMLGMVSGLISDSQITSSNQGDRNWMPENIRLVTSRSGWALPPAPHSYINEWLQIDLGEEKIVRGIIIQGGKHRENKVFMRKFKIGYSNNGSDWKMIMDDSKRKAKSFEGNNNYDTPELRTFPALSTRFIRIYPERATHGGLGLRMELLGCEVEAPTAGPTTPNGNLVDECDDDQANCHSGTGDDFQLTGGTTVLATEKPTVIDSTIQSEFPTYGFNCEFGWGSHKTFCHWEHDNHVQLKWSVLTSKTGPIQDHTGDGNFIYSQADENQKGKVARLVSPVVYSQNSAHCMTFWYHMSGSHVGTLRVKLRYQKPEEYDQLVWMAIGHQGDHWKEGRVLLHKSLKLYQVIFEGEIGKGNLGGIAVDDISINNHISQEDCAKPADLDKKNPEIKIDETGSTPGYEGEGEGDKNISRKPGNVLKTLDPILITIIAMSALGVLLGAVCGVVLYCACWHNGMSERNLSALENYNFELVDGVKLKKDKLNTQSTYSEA
binder,measurement,setting,value
"YW64.3, comparative antibody directed against Nrp1A (antibody, human IgG1, kappa, L234A L235A, V domains shown, Made for comparison after WO2007056470; also called anti-Nrp1A (YW64.3); Clone YW64.3) VH: EVQLVESGGGLVQPGGSLRLSCAASGFSFSSEPISWVRQAPGKGLEWVSSITGKNGYTYYADSVKGRFTISADTSKNTAYLQMNSLRAEDTAVYYCARWGKKVYGMDVWGQGTLVTVSS VL: DIQMTQSPSSLSASVGDRVTITCRASQSISSYLAWYQQKPGKAPKLLIYGASSRASGVPSRFSGSGSGTDFTLTISSLQPEDFATYYCQQYMSVPITFGQGTKVEIKR",Collapse assay IC50,[1],0.056 nM
same,VEGF induced cell integrity loss IC50,[2],12.6 nM
same,Kd,[3],11.3 nM
"YW107.4.87, comparative antibody directed against Nrp1B (antibody, human IgG1, kappa, V domains shown, Made for comparison after WO2007056470; also called anti-Nrp1B (YW107.4.87)) VH: EVQLVESGGGLVQPGGSLRLSCAASGFTFSSYAMSWVRQAPGKGLEWVSQISPAGGYTNYADSVKGRFTISADTSKNTAYLQMNSLRAEDTAVYYCARGELPYYRMSKVMDVWGQGTLVTVSS VL: DIQMTQSPSSLSASVGDRVTITCRASQYFSSYLAWYQQKPGKAPKLLIYGASSRASGVPSRFSGSGSGTDFTLTISSLQPEDFATYYCQQYLGSPPTFGQGTKVEIKR",VEGF induced cell integrity loss IC50,[2],13.7 nM
same,Kd,[3],37.5 nM
"Antibody of the invention (clone I), humanized anti-Nrp1A antibody (antibody, human IgG1, kappa, L234A L235A, V domains shown, also called exemplary antibody of the invention; lead compound) VH: EVQLLESGGGLVKPGGSLRLSCAASGFTFSSYAMSWVRQAPGKGLEWVSSISRTGYTYYAESVKGRFTISRDESKQTLYLQMQSLKTEDTAVYYCARVGTAFDYWGQGTLVTVSS VL: not shown",Collapse assay IC50,[1],0.098 nM
same,VEGF induced cell integrity loss IC50,[2],0.74 nM
same,Kd,[4],11.1 nM
same,Kd,cyno Nrp1,15.2 nM
same,Kd,rat Nrp1,10.5 nM
same,Kd,mouse Nrp1,7.7 nM
same,Kd,gerbil Nrp1,13.9 nM
same,Kd,[3],11.1 nM
